Experimental data published in US5082772A, “Process for preparing deacetylcephalosporin C” (priority 1988, dated 1992).
“And” between values parts separate entries of the source, which are not always exact repeats. Equal values may be shown once.

What was measured:
[1] = Stability (half-life) of native enzyme; assay type: physicochemical, Streptomyces clavuligerus
Source text: The purified native enzyme obtained from cell-free extracts of S. clavuligerus can be partially stabilized by phenylmethylsulfonyl fluoride and ethanol.

[2] = Isoelectric points of purified enzyme; assay type: physicochemical, Streptomyces clavuligerus; settings: two distinct points
[3] = target: T1, recombinantly produced DAOC synthase (Streptomyces clavuligerus, UniProt P18548); test: Kinetics of recombinant enzyme (Lineweaver-Burk); assay type: biochemical; settings: pH 7.0, 50 mM HEPES buffer, 36° C.
T1 construct: made in house; host or cells: Escherichia coli K12 JM109 (plasmid pOW382)
Protocol: The kinetics of the native enzyme and recombinant enzyme were determined under the optimal reaction conditions for the enzyme, i.e., at pH 7.0 in 50 mM HEPES buffer at 36° C.

B1: purified native enzyme: DAOC synthase obtained from cell-free extracts of S. clavuligerus (protein, UniProt P18548 1-311, looked up)
Deacetoxycephalosporin C …: MDTTVPTFSLAELQQGLHQDEFRRCLRDKGLFYLTDCGLTDTELKSAKDLVIDFFEHGSEAEKRAVTSPVPTMRRGFTGLESESTAQITNTGSYSDYSMCYSMGTADNLFPSGDFERIWTQYFDRQYTASRAVAREVLRATGTEPDGGVEAFLDCEPLLRFRYFPQVPEHRSAEEQPLRMAPHYDLSMVTLIQQTPCANGFVSLQAEVGGAFTDLPYRPDAVLVFCGAIATLVTGGQVKAPRHHVAAPRRDQIAGSSRTSSVFFLRPNADFTFSVPLARECGFDVSLDGETATFQDWIGGNYVNIRRTSKA
half-life ([1]; not stabilized): 20 h
half-life ([1]; stabilized by phenylmethylsulfonyl fluoride and ethanol): 48 h

B2: purified enzyme: purified deacetoxycephalosporin C synthase of S. clavuligerus (protein, UniProt P18548 1-311, looked up)
Deacetoxycephalosporin C …: B1 Deacetoxycephalosporin C …
isoelectric points [2]: 5.3±0.2 and 6.1±0.2

B3: recombinant synthase: S. clavuligerus DAOC synthase (expandase) produced in recombinant E. coli and purified (protein, UniProt P18548 1-311, looked up)
Deacetoxycephalosporin C …: B1 Deacetoxycephalosporin C …
modifications: recombinant, expressed in E. coli
notes: S. clavuligerus DAOC synthase (expandase) produced in recombinant E. coli and purified
Vmax [3]: 0.432 μmol DAOC formed/min/mg protein
